Measurements: publication PMC6436938

What was measured:
[1] = target: Impβ6M labeled with fluorescent Alexa 488 dye (human) (UniProt Q14974); assay: native gel or EMSA
[2] = target: Impβ labeled with fluorescent Alexa 488 dye (human) (UniProt Q14974); assay: native gel or EMSA
Impβ labeled with fluorescent Alexa 488 dye (human), sequence (Q14974 whole entry): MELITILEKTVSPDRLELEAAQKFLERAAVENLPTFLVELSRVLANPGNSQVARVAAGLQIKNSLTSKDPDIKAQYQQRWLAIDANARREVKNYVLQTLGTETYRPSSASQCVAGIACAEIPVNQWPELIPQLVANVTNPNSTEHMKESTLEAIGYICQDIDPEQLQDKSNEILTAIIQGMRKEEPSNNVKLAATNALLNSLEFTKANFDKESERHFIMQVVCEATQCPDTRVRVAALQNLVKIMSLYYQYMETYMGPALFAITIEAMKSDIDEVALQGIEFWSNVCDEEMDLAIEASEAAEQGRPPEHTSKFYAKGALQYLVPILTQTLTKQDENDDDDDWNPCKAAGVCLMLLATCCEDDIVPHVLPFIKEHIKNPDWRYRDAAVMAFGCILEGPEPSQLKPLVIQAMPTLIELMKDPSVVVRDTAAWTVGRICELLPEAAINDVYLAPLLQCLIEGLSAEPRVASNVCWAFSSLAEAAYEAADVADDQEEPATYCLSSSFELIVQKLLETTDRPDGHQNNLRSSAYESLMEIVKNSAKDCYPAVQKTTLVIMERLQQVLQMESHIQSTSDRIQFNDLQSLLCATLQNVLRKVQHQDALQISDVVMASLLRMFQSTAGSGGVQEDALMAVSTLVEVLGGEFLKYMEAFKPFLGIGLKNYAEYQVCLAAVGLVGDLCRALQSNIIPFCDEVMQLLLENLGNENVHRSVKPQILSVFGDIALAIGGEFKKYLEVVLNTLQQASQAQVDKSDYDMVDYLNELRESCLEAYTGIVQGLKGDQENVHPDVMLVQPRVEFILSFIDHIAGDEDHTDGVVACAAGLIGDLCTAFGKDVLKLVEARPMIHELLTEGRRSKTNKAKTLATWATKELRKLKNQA

Impβ6M labeled with fluorescent Alexa 488 dye (human), sequence (Q14974 whole entry L174S/T175A/I178D/E214A/F217A/I218D): as the sequence (Q14974 whole entry) above, with L174S, T175A, I178D, E214A, F217A, I218D counted along it

Kd [1] [nM]	Kd [2] [nM]	Substance
3340	620	importin α (Impα, Kapα) (from UniProt P52292 1-529) (natural protein)
	1220	Imp7 F1019S (natural protein)
	920	Impα F527S/F529S (from UniProt P52292 1-529) (natural protein)
	2890	Imp7 F1028S and F1030S (natural protein)
